Measured values reported in EP4574844A1 (Numab Therapeutics AG, dated 2025).
Where two headings read alike, the source gives them in different places. One block for each binder: values may come before it.

Key:
[1] = molecular target: T1, human LILRB2 on the cell surface (human, UniProt Q8N423 22-597); experiment: positive control of the LILRB2 ligand-blocking flow cytometry assay
T1 construct: whole, on cells; also called CHO K1 cells expressing human LILRB2; LILRB2 on HMDMs

[2] = molecular target: T2, human CD47 on the cell surface (human, UniProt Q08722 19-323); experiment: flow cytometry, CHO CD47 cells; competitor biotinylated SIRPα; column head prints EC50
T2 construct: whole, on cells; also called plasma membranous CD47; CHO CD47 cells

[3] = molecular target: T2, human CD47 on the cell surface; experiment: flow cytometry, NCI-H292 cells (CD47+ PD-L1+); competitor biotinylated SIRPα; column head prints EC50
[4] = molecular target: T3, human PD-L1 on the cell surface (human, UniProt Q9NZQ7 19-290); experiment: cell-based or functional assay
[5] = molecular target: T2, human CD47 on the cell surface; experiment: flow cytometry, human erythrocytes
[6] = molecular target: T2, human CD47 on the cell surface; experiment: flow cytometry, NCI-H292 cells; competitor biotinylated SIRPα; by the text maximum inhibition normalised to PRO2777
[7] = molecular target: T3, human PD-L1 on the cell surface; experiment: cell-based or functional assay; remark: listed apart in the source
[8] = molecular target: T2, human CD47 on the cell surface; experiment: cell-based or functional assay
[9] = molecular target: T2, human CD47 on the cell surface; experiment: flow cytometry, CHO CD47 cells; competitor biotinylated SIRPα; by the text maximum inhibition normalised to PRO2777
recombinant human PDL1 [10] = molecular target: T4, recombinant human PDL1 (human, UniProt Q9NZQ7 19-238, limits assumed); experiment: SPR, antigen immobilised, antibody as analyte
T4 construct: SPR antigen; also called CD274; B7-H1

recombinant human CD47 [11] = molecular target: T5, recombinant human CD47 (human, UniProt Q08722 19-139, limits assumed); experiment: SPR, antigen immobilised, antibody as analyte
[12] = molecular target: T2, human CD47 on the cell surface; experiment: flow cytometry, HT-29 cells (CD47+, no PD-L1)
[13] = molecular target: T6, LILRA6 on transiently transfected CHO cells (UniProt Q6PI73 24-481); experiment: CELISA, transiently transfected CHO cells
T6 construct: whole, on cells; V5 tag at the N-terminus

[14] = molecular target: T7, LILRA3 on transiently transfected CHO cells (UniProt Q8N6C8 24-439); experiment: CELISA, transiently transfected CHO cells
T7 construct: whole, on cells; V5 tag at the N-terminus

[15] = molecular target: T8, LILRA4 on transiently transfected CHO cells (UniProt P59901 24-499); experiment: CELISA, transiently transfected CHO cells
T8 construct: whole, on cells; V5 tag at the N-terminus

[16] = molecular target: T9, LILRB3 on transiently transfected CHO cells (UniProt O75022 24-631, limits assumed); experiment: CELISA, transiently transfected CHO cells
T9 construct: whole, on cells; V5 tag at the N-terminus

[17] = molecular target: T10, LILRB4 on transiently transfected CHO cells (UniProt Q8NHJ6 22-448); experiment: CELISA, transiently transfected CHO cells
T10 construct: whole, on cells; V5 tag at the N-terminus

[18] = molecular target: T11, LILRA1 on transiently transfected CHO cells (UniProt O75019 17-489, limits assumed); experiment: CELISA, transiently transfected CHO cells
T11 construct: whole, on cells; V5 tag at the N-terminus

[19] = molecular target: T12, LILRA2 on transiently transfected CHO cells (UniProt Q8N149 24-483); experiment: CELISA, transiently transfected CHO cells
T12 construct: whole, on cells; V5 tag at the N-terminus

[20] = molecular target: T13, LILRB5 on transiently transfected CHO cells (UniProt O75023 24-590, limits assumed); experiment: CELISA, transiently transfected CHO cells
T13 construct: whole, on cells; V5 tag at the N-terminus

[21] = molecular target: T14, LILRA5 on transiently transfected CHO cells (UniProt A6NI73 42-299); experiment: CELISA, transiently transfected CHO cells
T14 construct: whole, on cells; V5 tag at the N-terminus

[22] = molecular target: T15, LILRB2 (Q8N423-2) on transiently transfected CHO cells (UniProt Q8N423-2 22-597); experiment: CELISA, transiently transfected CHO cells
T15 construct: whole, on cells

[23] = molecular target: T16, LILRB1 on transiently transfected CHO cells (UniProt Q8NHL6 24-650); experiment: CELISA, transiently transfected CHO cells
T16 construct: whole, on cells; V5 tag at the N-terminus

recombinant human PDL1 [24] = molecular target: T4, recombinant human PDL1; experiment: SPR, antigen immobilised, antibody as analyte; remark: listed apart in the source
recombinant human CD47 [25] = molecular target: T5, recombinant human CD47; experiment: SPR, antigen immobilised, antibody as analyte; remark: listed apart in the source
[26] = molecular target: T3, human PD-L1 on the cell surface; experiment: cell-based or functional assay; remark: listed apart in the source
[27] = molecular target: T2, human CD47 on the cell surface; experiment: cell-based or functional assay; remark: listed apart in the source

T7 sequence (Q8N6C8 24-439): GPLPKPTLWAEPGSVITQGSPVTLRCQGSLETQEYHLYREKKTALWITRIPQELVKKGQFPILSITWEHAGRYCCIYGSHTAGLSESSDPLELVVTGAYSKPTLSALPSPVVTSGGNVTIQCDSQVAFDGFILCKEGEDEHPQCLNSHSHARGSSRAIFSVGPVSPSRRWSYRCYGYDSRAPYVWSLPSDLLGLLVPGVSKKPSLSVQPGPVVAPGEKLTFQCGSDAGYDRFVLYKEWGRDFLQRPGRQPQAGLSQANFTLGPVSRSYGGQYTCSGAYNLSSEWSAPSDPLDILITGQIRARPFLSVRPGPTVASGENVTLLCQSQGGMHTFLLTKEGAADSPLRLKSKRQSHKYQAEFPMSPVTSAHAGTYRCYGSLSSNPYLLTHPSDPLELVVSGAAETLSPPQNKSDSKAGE
T8 sequence (P59901 24-499): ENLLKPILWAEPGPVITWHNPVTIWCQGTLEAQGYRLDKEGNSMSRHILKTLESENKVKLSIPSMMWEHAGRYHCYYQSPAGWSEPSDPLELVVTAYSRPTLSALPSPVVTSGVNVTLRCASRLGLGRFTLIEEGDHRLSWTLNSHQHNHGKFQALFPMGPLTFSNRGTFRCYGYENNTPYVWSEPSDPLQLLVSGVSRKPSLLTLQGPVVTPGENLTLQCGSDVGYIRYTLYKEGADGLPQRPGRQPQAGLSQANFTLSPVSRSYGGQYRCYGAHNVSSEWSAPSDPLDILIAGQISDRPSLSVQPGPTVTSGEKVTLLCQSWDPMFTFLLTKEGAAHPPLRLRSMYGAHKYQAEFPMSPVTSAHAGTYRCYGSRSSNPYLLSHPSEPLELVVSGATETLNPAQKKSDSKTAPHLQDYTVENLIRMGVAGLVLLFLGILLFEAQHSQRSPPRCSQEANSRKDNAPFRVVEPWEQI
T11 sequence (O75019 17-489 limits assumed): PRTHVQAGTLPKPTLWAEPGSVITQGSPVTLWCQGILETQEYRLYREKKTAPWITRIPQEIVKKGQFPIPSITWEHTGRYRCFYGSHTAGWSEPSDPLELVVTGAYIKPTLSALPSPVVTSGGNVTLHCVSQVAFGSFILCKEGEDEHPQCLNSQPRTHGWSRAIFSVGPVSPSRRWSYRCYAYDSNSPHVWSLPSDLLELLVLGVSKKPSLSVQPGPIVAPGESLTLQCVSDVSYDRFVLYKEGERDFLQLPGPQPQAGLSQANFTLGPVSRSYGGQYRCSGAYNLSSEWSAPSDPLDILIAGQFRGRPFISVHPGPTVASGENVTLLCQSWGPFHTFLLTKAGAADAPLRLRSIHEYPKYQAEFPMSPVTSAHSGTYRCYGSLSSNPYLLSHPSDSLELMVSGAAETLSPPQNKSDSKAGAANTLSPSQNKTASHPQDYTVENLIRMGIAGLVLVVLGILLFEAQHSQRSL
T14 sequence (A6NI73 42-299): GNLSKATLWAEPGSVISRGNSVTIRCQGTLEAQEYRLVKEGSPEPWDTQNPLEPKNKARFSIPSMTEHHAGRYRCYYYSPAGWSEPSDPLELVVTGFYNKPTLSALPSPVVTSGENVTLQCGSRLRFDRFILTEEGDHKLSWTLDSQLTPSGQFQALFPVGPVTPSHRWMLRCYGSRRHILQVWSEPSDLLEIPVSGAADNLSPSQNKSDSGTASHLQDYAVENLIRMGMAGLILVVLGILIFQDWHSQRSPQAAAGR
T15 sequence (Q8N423 22-597, one chain of several): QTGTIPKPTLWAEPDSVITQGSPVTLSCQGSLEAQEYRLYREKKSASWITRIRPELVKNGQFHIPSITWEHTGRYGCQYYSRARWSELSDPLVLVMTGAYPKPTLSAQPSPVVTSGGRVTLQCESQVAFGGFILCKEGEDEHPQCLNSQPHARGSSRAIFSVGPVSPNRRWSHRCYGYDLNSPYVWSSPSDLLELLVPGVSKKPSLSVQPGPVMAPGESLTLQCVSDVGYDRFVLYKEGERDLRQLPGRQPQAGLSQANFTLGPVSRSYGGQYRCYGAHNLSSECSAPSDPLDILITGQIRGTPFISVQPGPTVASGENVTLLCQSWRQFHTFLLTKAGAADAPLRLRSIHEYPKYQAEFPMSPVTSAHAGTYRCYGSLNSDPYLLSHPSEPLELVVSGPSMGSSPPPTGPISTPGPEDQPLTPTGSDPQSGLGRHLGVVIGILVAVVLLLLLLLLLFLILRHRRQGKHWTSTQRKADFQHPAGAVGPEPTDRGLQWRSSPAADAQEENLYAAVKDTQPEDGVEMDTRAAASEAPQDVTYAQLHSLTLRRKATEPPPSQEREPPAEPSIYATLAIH
T1 sequence (Q8N423 22-597): as the sequence (Q8N423 22-597, one chain of several) above
T6 sequence (Q6PI73 24-481): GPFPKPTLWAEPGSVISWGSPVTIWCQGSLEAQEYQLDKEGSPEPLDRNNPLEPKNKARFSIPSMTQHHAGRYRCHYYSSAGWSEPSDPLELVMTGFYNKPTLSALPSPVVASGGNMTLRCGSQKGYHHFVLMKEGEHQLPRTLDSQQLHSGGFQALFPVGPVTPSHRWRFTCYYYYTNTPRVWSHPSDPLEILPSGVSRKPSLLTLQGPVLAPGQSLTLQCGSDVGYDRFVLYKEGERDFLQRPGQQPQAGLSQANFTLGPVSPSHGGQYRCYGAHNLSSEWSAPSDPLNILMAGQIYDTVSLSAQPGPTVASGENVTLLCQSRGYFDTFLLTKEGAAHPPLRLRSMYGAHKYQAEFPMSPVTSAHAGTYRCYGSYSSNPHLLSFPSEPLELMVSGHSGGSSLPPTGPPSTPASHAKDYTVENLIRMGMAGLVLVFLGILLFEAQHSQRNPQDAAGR
T13 sequence (O75023 24-590 limits assumed): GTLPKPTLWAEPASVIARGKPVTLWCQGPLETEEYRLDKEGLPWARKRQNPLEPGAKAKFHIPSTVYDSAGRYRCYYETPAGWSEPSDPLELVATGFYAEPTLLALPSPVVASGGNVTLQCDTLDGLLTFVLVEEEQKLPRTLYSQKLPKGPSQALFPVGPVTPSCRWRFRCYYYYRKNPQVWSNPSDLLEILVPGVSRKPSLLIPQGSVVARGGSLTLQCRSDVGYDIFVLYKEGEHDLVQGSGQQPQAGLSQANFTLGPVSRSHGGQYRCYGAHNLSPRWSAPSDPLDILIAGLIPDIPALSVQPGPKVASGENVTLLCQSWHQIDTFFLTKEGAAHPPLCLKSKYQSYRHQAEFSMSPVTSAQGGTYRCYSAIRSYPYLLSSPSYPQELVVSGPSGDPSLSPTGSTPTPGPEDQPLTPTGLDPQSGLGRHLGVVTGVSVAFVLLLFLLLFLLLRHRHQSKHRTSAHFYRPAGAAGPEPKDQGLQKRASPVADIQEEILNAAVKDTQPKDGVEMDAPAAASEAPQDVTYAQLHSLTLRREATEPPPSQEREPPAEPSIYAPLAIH
T12 sequence (Q8N149 24-483): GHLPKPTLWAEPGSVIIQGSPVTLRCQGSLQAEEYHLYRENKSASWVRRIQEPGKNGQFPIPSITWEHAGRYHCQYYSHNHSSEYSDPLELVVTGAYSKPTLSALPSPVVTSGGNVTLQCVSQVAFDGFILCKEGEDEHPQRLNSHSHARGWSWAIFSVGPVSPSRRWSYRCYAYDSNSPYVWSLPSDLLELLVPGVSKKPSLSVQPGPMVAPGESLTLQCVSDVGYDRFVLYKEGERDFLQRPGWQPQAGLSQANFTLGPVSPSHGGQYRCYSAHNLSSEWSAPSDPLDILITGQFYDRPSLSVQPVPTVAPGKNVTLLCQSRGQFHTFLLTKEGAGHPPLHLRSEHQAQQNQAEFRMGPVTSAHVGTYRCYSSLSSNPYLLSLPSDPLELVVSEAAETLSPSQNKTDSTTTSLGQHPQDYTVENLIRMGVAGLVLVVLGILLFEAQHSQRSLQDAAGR
T16 sequence (Q8NHL6 24-650): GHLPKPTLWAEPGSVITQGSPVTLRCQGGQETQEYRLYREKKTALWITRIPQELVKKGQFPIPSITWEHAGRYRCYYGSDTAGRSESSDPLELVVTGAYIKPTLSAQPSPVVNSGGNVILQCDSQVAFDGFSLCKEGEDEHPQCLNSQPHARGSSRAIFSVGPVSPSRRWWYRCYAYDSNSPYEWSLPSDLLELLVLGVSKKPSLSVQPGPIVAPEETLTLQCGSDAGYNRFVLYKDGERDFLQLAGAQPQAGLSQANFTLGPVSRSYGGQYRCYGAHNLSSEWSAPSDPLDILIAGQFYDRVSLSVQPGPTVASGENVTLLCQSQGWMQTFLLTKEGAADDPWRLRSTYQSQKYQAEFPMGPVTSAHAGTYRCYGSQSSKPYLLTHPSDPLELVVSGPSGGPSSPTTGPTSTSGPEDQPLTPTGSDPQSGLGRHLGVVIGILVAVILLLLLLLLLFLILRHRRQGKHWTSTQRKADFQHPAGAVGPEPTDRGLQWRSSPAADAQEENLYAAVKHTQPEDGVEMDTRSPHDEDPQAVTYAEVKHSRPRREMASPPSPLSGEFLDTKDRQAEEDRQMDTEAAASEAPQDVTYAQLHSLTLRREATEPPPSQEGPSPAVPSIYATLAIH

binding result [1]: binds
B1: PRO2518 (antibody, human IgG4 S228P, kappa, V domains shown)
VH: QITLKESGPTLVKPTQTLTLTCTFSGFSLNTYAMGVSWIRQPPGKALEWLASIWWNGNKYNNPSLKSRLTVTKDTSKNQVVLTMTNMDPVDTATYYCAHSRIIRFTDYVMDAWGQGTLVTVSS
VL: DIQMTQSPSSLSTSVGDRVTITCRASEDIYNDLAWYQQKPGKAPKLLIYNANSLHTGVASRFSGSGSGTDFTFTISSLQPEDVATYFCQQYYDYPLTFGQGTKLEIKR
notes: also called J19.H1; J-19

IC50 [2]: 110 nM | IC50 [3]: 0.068 nM | EC50 [nM], PD-L1 / PD-1 transgenic NFAT reporter gene assay [4]: 0.272 nM | EC50 [5]: 98.8 nM | Rel. maximum binding (max. MFI sample / max. MFI magrolimab) [6]: 92.5 | PD-L1 driven EC50 [nM], phagocytosis of H292 cells [7]: 0.04 nM | CD47 driven EC50 [nM], phagocytosis of H292 cells [8]: 31.2 nM | Rel. maximum binding (max. MFI sample / max. MFI magrolimab) [9]: 87 | Kd (recombinant human PDL1 [10]): 0.0759 nM | koff (recombinant human PDL1 [10]): 4.19e-05 s⁻¹ | kon (recombinant human PDL1 [10]): 552000 M⁻¹ s⁻¹ | Kd (recombinant human CD47 [11]): 35 nM | koff (recombinant human CD47 [11]): 0.0235 s⁻¹ | kon (recombinant human CD47 [11]): 672000 M⁻¹ s⁻¹ | EC50 [12]: > 100 nM
B2: PRO3790 (bispecific antibody, human IgG1, kappa)
chain: DVQMTQSPSSLSASVGDRVTITCQASQSISSWVSWYQQKPGKPPKLLIYRGGYLESGVPSRFSASGSGTDFTLTISSLQPEDFATYYCQSTDSSTYGGAFGCGTKVTVLGGGGGSGGGGSGGGGSGGGGSQQVVESGGGLVQPGGSLRLSCAVSGIDLNSYAMTWVRQAPGKCLEWIGYIGSASSTYYASWASGRFTISKDNSKNTVYLQMNSLRAEDSAVYFCARGSTYINIWGQGTLVKVSSEPKSSDKTHTCPPCPAPELLGGPSVFLFPPKPKDTLMISRTPEVTCVVVDVSHEDPEVKFNWYVDGVEVHNAKTKPREEQYNSTYRVVSVLTVLHQDWLNGKEYKCKVSNKALPAPIEKTISKAKGQPREPQVYTLPPCREEMTKNQVSLSCAVKGFYPSDIAVEWESNGQPENNYKTTPPVLDSDGSFFLVSKLTVDKSRWQQGNVFSCSVMHEALHNHYTQKSLSLSPGK
heavy: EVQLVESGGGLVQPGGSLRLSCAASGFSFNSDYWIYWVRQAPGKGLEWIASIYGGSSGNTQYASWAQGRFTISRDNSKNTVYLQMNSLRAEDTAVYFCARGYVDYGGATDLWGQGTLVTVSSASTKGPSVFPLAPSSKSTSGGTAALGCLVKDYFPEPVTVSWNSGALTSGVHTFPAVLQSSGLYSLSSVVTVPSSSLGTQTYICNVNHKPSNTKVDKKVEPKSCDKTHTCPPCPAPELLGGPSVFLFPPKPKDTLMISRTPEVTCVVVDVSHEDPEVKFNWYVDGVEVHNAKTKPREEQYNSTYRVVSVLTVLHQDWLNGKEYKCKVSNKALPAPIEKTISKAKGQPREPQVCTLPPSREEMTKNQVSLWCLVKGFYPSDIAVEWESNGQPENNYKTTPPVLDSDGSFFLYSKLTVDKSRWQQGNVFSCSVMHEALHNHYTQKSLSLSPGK
light: DIQMTQSPASLSASVGDRVTITCQASQSIGTYLAWYQQKPGKPPKLLIYRAFILASGVPSRFSGSGSGTDFTLTISSLQPEDFATYYCQSNFYSDSTTIGPNAFGQGTKVEIKRTVAAPSVFIFPPSDEQLKSGTASVVCLLNNFYPREAKVQWKVDNALQSGNSQESVTEQDSKDSTYSLSSTLTLSKADYEKHKVYACEVTHQGLSSPVTKSFNRGEC
notes: anti-CD47 x PDL1: 70-26-B04-sc03 scFv on hole-Fc, 37-20-B03-sc09.1 Fab on knob-Fc

binding result [13]: no binding (tested: up to 100 nM) | binding result [14]: no binding (tested: up to 100 nM) | binding result [15]: no binding (tested: up to 100 nM) | binding result [16]: no binding (tested: up to 100 nM) | binding result [17]: no binding (tested: up to 100 nM) | binding result [18]: no binding (tested: up to 100 nM) | binding result [19]: no binding (tested: up to 100 nM) | binding result [20]: no binding (tested: up to 100 nM) | binding result [21]: no binding (tested: up to 100 nM) | binding result [22]: binds | binding result [23]: no binding (tested: up to 100 nM)
B3: PRO3635 (antibody, human IgG4 S228P, kappa, V domains shown)
VH: QQLVESGGGRVQPGGSLRLSCAASGFSFTNNYYMCWVRQAPGKGLEWIACMLVGAWGNTYYASWANGRFTISKDNSKNTVYLQMNSLRAEDTATYFCARARDYTWTLGGDPETSGFNLWGQGTQVTVSS
VL: DVQMTQSPSSLSASVGDRVTITCQASQSIGSNLAWYQQKPGKPPKLLIYKASTLESGVPSRFSGSGSGTDFTLTISSLQPEDFATYYCQSTAGSSRSGNYGYVFGQGTKVEIKR
notes: anti-LILRB2 IgG4; also called 68-18-E11-sc02 IgG4; IgG variant of scFv PRO3064

Kd (recombinant human PDL1 [24]): 0.0133 nM | koff (recombinant human PDL1 [24]): 2.72e-05 s⁻¹ | kon (recombinant human PDL1 [24]): 2.05e+06 M⁻¹ s⁻¹ | Kd (recombinant human CD47 [25]): 49.7 nM | koff (recombinant human CD47 [25]): 0.0265 s⁻¹ | kon (recombinant human CD47 [25]): 533000 M⁻¹ s⁻¹ | PD-L1 driven EC50 [nM], phagocytosis of H292 cells [7]: 0.19 nM | CD47 driven EC50 [nM], phagocytosis of H292 cells [8]: 28.2 nM | PD-L1 driven EC50 [nM], phagocytosis of H292 cells [26]: 0.18 nM | CD47 driven EC50 [nM], phagocytosis of A375 cells [27]: 27.5 nM | CD47 driven EC50 [nM], phagocytosis of H292 cells [27]: 28.4 nM
B4: PRO5053 (antibody)
chain 1: DVQMTQSPSSLSASVGDRVTITCQASQSISSWVSWYQQKPGKPPKLLIYRGGYLESGVPSRFSASGSGTDFTLTISSLQPEDFATYYCQSTDSSTYGGAFGCGTKVTVLGGGGGSGGGGSGGGGSGGGGSQQVVESGGGLVQPGGSLRLSCAVSGIDLNSYAMTWVRQAPGKCLEWIGYIGSASSTYYASWASGRFTISKDNSKNTVYLQMNSLRAEDSAVYFCARGSTYINIWGQGTLVKVSSEPKSSDKTHTCPPCPAPELLGGPSVFLFPPKPKDTLMISRTPEVTCVVVDVSHEDPEVKFNWYVDGVEVHNAKTKPREEQYNSTYRVVSVLTVLHQDWLNGKEYKCKVSNKALPAPIEKTISKAKGQPREPQVYTLPPCREEMTKNQVSLSCAVKGFYPSDIAVEWESNGQPENNYKTTPPVLDSDGSFFLVSKLTVDKSRWQQGNVFSCSVMHEALHNHYTQKSLSLSPGKGGGGSGGGGSDIQMTQSPSSLSASVGDRVTITCQSSESVYSNNQLSWYQQKPGQPPKLLIYDASDLASGVPSRFSGSGSGTDFTLTISSLQPEDFATYYCAGGFSSSSDTAFGCGTKLTVLGGGGGSGGGGSGGGGSGGGGSEVQLVESGGGLVQPGGSLRLSCAASGFSLSSNAMGWVRQAPGKCLEYIGIISVGGFTYYASWAKGRFTISRDNSKNTVYLQMNSLRAEDSATYFCARDRHGGDSSGAFYLWGQGTLVKVSS
chain 2: not shown
notes: anti-PDL1 x CD47 x (hSA dummy domain); also called PRO5052 with dummy domain for LILRB2-BD
